The source of these data is patent US20240084280A1.

For the assay, the target named is integrin alpha(IIb)beta(3) (UniProt P08514). The assay can be described thus: cell-based or functional assay.

B1: trimucrin variant RR (protein)
chain: EAGEECDCGSPENPCCDAATCKLRPGAQCAEGLCCDQCRFKKKRTICRRAKGDRRDDRCTGQSADCPRNRLYG
B1 yielded an IC50: platelet aggregation (ADP-induced, platelet-rich plasma) of 52.5 nM.
